# Reference: the supplement of paper PMC9170038
# Tested on: MS2 coat protein
# Experiment: apparent KD of MS2 coat protein; designed switch direction (-1 OFF switch, 1 ON switch): -1; higher = weaker reporter binding
# How it was run: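 SNAP-549-labelled MS2 coat protein was titrated, doubling from 0.7 or 1.5 nM to 3 µM, over designed RNA switches transcribed on Illumina chips by stalled E. coli RNA polymerase. Runs were done without input, with 200 uM small-molecule ligand, or with an oligonucleotide input. Apparent KD is the per-design median over clusters of curve-fitted normalised fluorescence.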
# [1] = input ligand: microRNA oligo, concentration not stated
# [2] = Eterna round: R95, input ligand: microRNA oligo, concentration not stated
Sequence,apparent KD of MS2 coat protein (input ligand: FMN 200 uM) [nM],apparent KD of MS2 coat protein [1] [nM],apparent KD of MS2 coat protein (input ligand: none) [nM],"apparent KD of MS2 coat protein (Eterna round: R95, input ligand: FMN 200 uM) [nM]",apparent KD of MS2 coat protein [2] [nM],"apparent KD of MS2 coat protein (Eterna round: R95, input ligand: none) [nM]"
"GCGCCAUCGUGAGAUGGCGUAAUUACAUGAGGAUCACCCAUGUAGGAUAUCGAUUGCUUUGCAGUCGAGAAGGGCAAGGUUUGU [JL ENG3 3.84] (Eterna round: R96, puzzle: Exclusion NG 3)",25.7,19.9,30.9,,,
"GCGGACAAGAUCGUGAGAUCAGAGACAUGAGGAUCACCCAUGUAGGAUAUCGAUUCGAAACGAAUCGAGAAGGGCAUAGUCCGC [JL denovo 6] (Eterna round: R96, puzzle: Exclusion NG 3)",20.5,14.9,19.8,,,
"GCGGACUAGAACGUGAGUUCUGAGACAUGAGGAUCACCCAUGUAGGAUAUCGAUUCGUUUCGAAUCGAGAAGGGCAUAGUCCGC [JL denovo 12] (Eterna round: R96, puzzle: Exclusion NG 3)",21.3,14.2,20.3,,,
"GCGGAUUAUGUAGGAUAUCGGUCAGUUUCUGAUCGAGAAGGACAUGAGGAUCACCCAUGUAAAUUGCCCGCUUUGUGGGUCCGC [JL ENG1 3.62] (Eterna round: R96, puzzle: Exclusion NG 1)",41.7,15,15.7,,,
"GCGUACUGAGGAUAUACAUGAGGAUCACCCAUGUAACACAGCAUAUAUAGAUAUUUUUGUAGAAGGCAGUAUGC [JR_Ex3_Sub057] (Eterna round: R97, puzzle: Exclusion 3)",40.2,,17.5,,,
"GCGUACUGAGGAUAUACAUGAGGAUCACCCAUGUAACACAGCAUAUGUGAAGUUUUUUGUAGAAGGCAGUAUGC [JR_Ex3_Sub056] (Eterna round: R97, puzzle: Exclusion 3)",180,,28.7,,,
"GCGUACUGAGGAUAUACAUGAGGAUCACCCAUGUGAAGAAGAAAGUAGUGAUGGUUAAGUAGAAGGCAGUAUGC [JR_Ex3_Sub063] (Eterna round: R97, puzzle: Exclusion 3)",411,,113,,,
GCGUCGAGUGUGAGGAUAUGCUGGUCAUAAGAUCAGCAGAAGGCACAUGAGGAUCACCCAUGUGAAAACGAUGC [Mat - Exclusion 4 - JL Mod - D69] (puzzle: Brourd's mod of Exclusion 4),,,,73.2,16.3,20.6
"GCGUUCUGAGGAUAUACAUGAGGAUCACCCAUGUUGAGAAAUAAGAAUAAGCCCUUAAGUAGAAGGCAGAGUGC [JR_Ex3_Sub073] (Eterna round: R97, puzzle: Exclusion 3)",105,,27.8,,,
"GCGUUUUGGUGAGGAUAUCGGCCCGAAACCGGGCAACAUGAGGAUCACCCAUGUACGUGAUCCUGCGAGAAGGCACCGAUUAUA [Bedi] (Eterna round: R96, puzzle: Exclusion NG 2)",990,60.7,964,,,
GCUAAGAGUGUGAGGAUAUGCUGGUCCUUGGAUCAGCAGAAGGCACAUGAGGAUCACCCAUGUGAAAACUUAGC [Mat - Exclusion 4 - JL Mod - D64] (puzzle: Brourd's mod of Exclusion 4),,,,,19.9,
"GCUAGAGCAGGAUAUCGAGAUCCGCACAUGAGGAUCACCCAUGUACGGUCGAAAGACCGACGAGAAGGGCUCUAGC [Omei Ex5 E10] (Eterna round: R97, puzzle: Exclusion 5)",178,,186,,,
"GCUAGAGCAGGAUAUCUAGAUCCACACAUGAGGAUCACCCAUGUAUAGUCGAAAGACUAAAGAGAAGGGCUCUAGC [Omei Ex5 E14] (Eterna round: R97, puzzle: Exclusion 5)",72.7,,61.8,,,
"GCUAGGAGUGUGAGGAUAUGCAGUUCCUUGGAACUGCAGAAGGCACAUGAGGAUCACCCAUGUGAAGACCUAGC [Mat - Exclusion 4 - JL Mod - D4] (Eterna round: R97, puzzle: Brourd's mod of Exclusion 4)",212,,26.6,,,
"GCUAGGCAUGUCAGGAUAUGCUGUACCUUGGUACAGCAGAAGGGACAUGAGGAUCACCCAUGUGCCUACCUAGC [JL-BMX4-4.04] (Eterna round: R97, puzzle: Brourd's mod of Exclusion 4)",173,,28.3,,,
"GCUCGUGGGCAAGGAUAUCCUACGCUGUUCUGGUUCGUGUCUGUCACAUGAGGAUCACCCAUGUGGGAGAAGGUGCAUUUGGGU [Design 56] (Eterna round: R96, puzzle: Exclusion NG 2)",18.2,15.9,20.6,,,
"GCUGCAAAUGUAGGAUAUCUGCACGUGUAGUGCAGAGAAGGACAUGAGGAUCACCCAUGUAGAUCAGCAGCAAUUAAUUUAAUU [ENG1/5-A3] (Eterna round: R96, puzzle: Exclusion NG 1)",288,34.5,42.2,,,
GCUGCGCGAGGAUAUGCGGUUCGCGCGGUGGCCCGUGGCGGACAUGAGGAUCACCCAUGUAGAAGGCGUGCGGG [Apr-15 SS2-59] (puzzle: Exclusion 2),,,,,11.2,
"GCUGGAAAAGGAUAUACAUAACGUGCGUCGGCACGAGACCUACAUGAGGAUCACCCAUGUAGAAGGUUUCCAGC [EX2 #74] (Eterna round: R97, puzzle: Exclusion 2)",20.9,,13.6,,,
"GCUGGACAAGGAUAUAUAUGACGUGCUUCGGCACGAAGGUCACAUGAGGAUCACCCAUGUAGAAGGUGUCCAGC [E2/9-C2] (Eterna round: R97, puzzle: Exclusion 2)",342,,49.7,,,
"GCUGGUCAAGGAUAUAUAUGACGUGCUUCGGCACGAAGGUCACAUGAGGAUCACCCAUGUAGAAGGUGACCAGC [E2/9-C1] (Eterna round: R97, puzzle: Exclusion 2)",304,,39.7,,,
"GCUGGUCGAGGAUAUACAUGAGGAUCACCCAUGUGAUUAGCAGUCCUCGGACUGCAAUGUAGAAGGUGACCAGC [E3/2-B1] (Eterna round: R97, puzzle: Exclusion 3)",907,,198,,,
"GCUGGUCGAGGAUAUGCAUUCGUGCUUCGGCACGUAAGGUCACAUGAGGAUCACCCAUGUAGAAGGCGACCAGC [E2/6-A1] (Eterna round: R97, puzzle: Exclusion 2)",30.2,,17.5,,,
